{"source": "patent US11147882B2", "about": "“Method for preserving and stabilizing proteins for formulations of sanitary, pharmaceutical and cosmetic products” (SANI-RED, S.L., priority 2013, dated 2021)", "origin": "cited, not measured here"}
{"substance": "EGF: epidermal growth factor, first polypeptide isolated and characterized as a growth factor; rhEGF is the recombinant human form", "values": [{"measurement": "half-life of rhEGF at 25° C.", "setting": "25° C., based on the Arrhenius equation (Yang et al. 2005)", "result": 6.93, "unit": "h"}, {"measurement": "half-life at 37 C", "setting": "37 °C, pH 7.2", "result": 3.47, "unit": "h"}, {"measurement": "half-life (mean life, useful life) of EGF", "setting": "EGF normally, published studies", "result": 7, "unit": "h"}]}
